Earlier results in patent US20120245089A1, “USE OF THE SPARC MICROENVIRONMENT SIGNATURE IN THE TREATMENT OF CANCER” (ABRAXIS BIOSCIENCE, LLC, priority 2009, published 2012).

Assays:
[1] = test system: neuroblastoma tumor; settings: purified SPARC; in vivo xenograft model
[2] = test system: HOSE (human ovarian surface epithelial) and ovarian cancer cells; settings: exogenous SPARC; concentration-dependent
[3] = test system: ovarian cancer cells

B1: SPARC: matrix-associated protein; exogenous or purified SPARC in cited studies (protein, UniProt P09486 18-303, looked up)
SPARC: APQQEALPDETEVVEETVAEVTEVSVGANPVQVEVGEFDDGAEETEEEVVAENPCQNHHCKHGKVCELDENNTPMCVCQDPTSCPAPIGEFEKVCSNDNKTFDSSCHFFATKCTLEGTKKGHKLHLDYIGPCKYIPPCLDSELTEFPLRMRDWLKNVLVTLYERDEDNNLLTEKQKLRVKKIHENEKRLEAGDHPVELLARDFEKNYNMYIFPVHWQFGQLDQHPIDGYLSHTELAPLRAPLIPMEHCTTRFFETCDLDNDKYIALDEWAGCFGIKQKDIDKDLVI
- Angiogenesis and neuroblastoma tumor growth [1]: inhibit angio-gnesis and impair neuroblastoma tumor growth
- Proliferation of HOSE and ovarian cancer cells [2]: reduce the proliferation
- Apoptosis in ovarian cancer cells [3]: induces apoptosis
